We go through 1 substance from article PMC5783996.

This assay deals with Botryococcus braunii light-harvesting complexes (BB LHCII), apoproteins of the trimeric fraction B3 (Botryococcus braunii (endogenous in strain CCALA778 thylakoids)). Put plainly: sucrose density gradient ultracentrifugation; thylakoids solubilised with 1% α-DM (also OG) at room temperature, complexes separated on a sucrose density gradient; bands assigned by position (MW).

As to “Botryococcus braunii light-harvesting complexes (BB LHCII), apoproteins of the trimeric fraction B3”, the stoichiometry N amounted to 3.
